Assay [1] has as its target wild-type ParF, His-tagged, purified (plasmid TP228 (in Escherichia coli)). The experiment in a line: co-sedimentation.
The target in assay [2] is wild-type ParF fused to the T18 or T25 fragment of Bordetella pertussis adenylate cyclase (plasmid TP228 (in Escherichia coli)). The experiment in a line: two-hybrid.
The target of assay [3] is T1, ParF (Salmonella enterica, UniProt Q9KJ83).
T1 construct: full-length, His-tagged (pET-22b(+)), produced in E. coli BL21(DE3); monomer with ADP, dimer and higher-order with ATP
T1 sequence (Q9KJ83 1-206): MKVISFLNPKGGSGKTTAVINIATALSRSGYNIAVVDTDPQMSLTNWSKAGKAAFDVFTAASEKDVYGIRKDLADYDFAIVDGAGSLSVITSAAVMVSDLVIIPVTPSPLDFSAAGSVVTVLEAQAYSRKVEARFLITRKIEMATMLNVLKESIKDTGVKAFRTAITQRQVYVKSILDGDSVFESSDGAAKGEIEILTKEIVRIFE
The experiment in a line: sedimentation assay of higher-order assembly. It counts as binding. The settings on record: 2 mM nucleotide, 5 mM MgCl2, 30 mM Tris-HCl pH 8.0, 100 mM KCl, 30 °C. The source says: sedimentation assay of higher-order assembly on ParF | ATP or non-hydrolyzable ATPγS increased the levels of higher-order assemblies of wild-type ParF

The target of assay [4] is T1, ParF. Briefly: fluorescence anisotropy titration. In kind it is binding. Conditions: read-out: apparent Kd; 20 mM HEPES, 150 mM NaCl, 1 mM MgCl2, pH 7.0; 0.9 μM labelled compound; possible hydrolysis during measurement. In general terms: In fluorescence polarisation assays a small probe gives low polarisation when free and higher when bound to something large.
Assay [5] concerns the target wild-type ParF, His-tagged, purified (plasmid TP228 (in Escherichia coli)).

This note sets out measurements from publication PMC7308502, “Genome Segregation by the Venus Flytrap Mechanism: Probing the Interaction Between the ParF ATPase and the ParG Centromere Binding Protein” (Frontiers in Molecular Biosciences, 2020).

On to “wild-type ParF, His-tagged, purified (enzyme)”, for which, in assay [1], the percent of ParF in the pellet fraction (with ParG and ATPγS) turned out to be 80%.

“wild-type ParF fused to the T18 or T25 fragment of Bordetella pertussis adenylate cyclase (natural protein)”: the β-galactosidase units (β-galactosidase units) in assay [2] turned out to be 700.

Take `Nc1ncnc2c1ncn2[C@@H]1O[C@H](COP(=O)(O)OP(=O)(O)OP(=O)(O)O)[C@@H](O)[C@H]1O` [ATP]: the “fold increase in pellet fraction” value in assay [3] is listed as ~ 2 fold.

Take `CNc1ccccc1C(=O)O[C@H]1[C@@H](O)[C@H](n2cnc3c(N)ncnc32)O[C@@H]1CO[P@@](=O)(O)O[P@](=O)(O)OP(=O)(O)O` [MANT-ATP]: the Kd in assay [4] is ~500 nM.

In assay [1], “ParG, His-tagged, purified (natural protein)” came in with a percent of ParG in the pellet fraction (with ATPγS) of 50%. The fold stimulation of ParF ATPase activity by ParG (ParF 1 μM, ParG 0-20 μM, 5 μM ATP) in assay [5] is 20 fold.

Regarding `Nc1ncnc2c1ncn2[C@@H]1O[C@H](COP(=O)(O)OP(=O)(O)OP(O)(O)=S)[C@@H](O)[C@H]1O` [ATPγS], the “fold increase in pellet fraction” value in assay [3] is reported as ~ 2 fold.
